Source: publication PMC12852381 (2025)

Biological target: DENV-2 Envelope protein (DENV E dimeric protein) (Dengue virus type 2; strain of the BLI …, UniProt P14340)
Experiment: BLI; Octet RED 96, 24 °C, 1,000 rpm; CR3022 (5 µg/ml) loaded on AHC (anti-hIgG Fc capture) sensors; DENV E dimeric protein diluted three-fold from 6,000 nM; 50 mM Tris, 150 mM NaCl, 0.5% glycerol, pH 8.0; global 1:1 fit
Conditions: both partners purified

B1: CR3022, an antibody against the SARS-CoV-2 spike protein (antibody, V domains shown)
VH: EVQLVQSGTEVKKPGESLKISCKGSGYGFITYWIGWVRQMPGKGLEWMGIIYPGDSETRYSPSFQGQVTISADKSINTAYLQWSSLKASDTAIYYCAGGSGISTPMDVWGQGTTVTVSS
VL: not shown
Question: How did the Kd turn out when B1 was run?
Answer: Its Kd is 2830 nM.
